Ends that are not written are not given here. * marks the point of attachment. Biotin = O=C1N[C@H]2[C@H](CS[C@H]2CCCCC(=O)*)N1
Columns and labels:
Test in all cases: A/G assays
[1] = molecular target: T1, GST-RGS12 PDZ domain fusion protein (human, UniProt O14924 17-85)
T1 construct: also called human regulator of G-protein signalling 12; not shown: glutathione S-transferase encoded by vector pGEX-3X (Pharmacia)
T1 sequence: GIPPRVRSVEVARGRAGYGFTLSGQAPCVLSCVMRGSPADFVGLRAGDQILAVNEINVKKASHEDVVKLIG

[2] = molecular target: T2, GST-DVL1 PDZ domain fusion protein (human, UniProt O14640 247-339)
T2 construct: also called human dishevelled segment polarity protein homolog; not shown: glutathione S-transferase encoded by vector pGEX-3X (Pharmacia)
T2 sequence: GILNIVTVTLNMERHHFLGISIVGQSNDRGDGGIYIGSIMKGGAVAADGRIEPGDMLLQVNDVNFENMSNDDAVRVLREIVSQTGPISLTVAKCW

[3] = molecular target: T3, GST-KIAA0303 PDZ domain fusion protein (Homo sapiens (Human), UniProt O15021 1138-1228)
T3 construct: also called K303; not shown: glutathione S-transferase encoded by vector pGEX-3X (Pharmacia)
T3 sequence: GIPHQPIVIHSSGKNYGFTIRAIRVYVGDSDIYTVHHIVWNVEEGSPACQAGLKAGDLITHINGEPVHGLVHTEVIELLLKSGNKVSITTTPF

[4] = molecular target: T4, GST-prIL16 fusion protein (PDZ domains 1-2) (Homo sapiens (Human), UniProt Q14005 1111-1324)
T4 construct: also called putative interleukin 16 precursor; not shown: glutathione S-transferase encoded by vector pGEX-3X (Pharmacia)
T4 sequence: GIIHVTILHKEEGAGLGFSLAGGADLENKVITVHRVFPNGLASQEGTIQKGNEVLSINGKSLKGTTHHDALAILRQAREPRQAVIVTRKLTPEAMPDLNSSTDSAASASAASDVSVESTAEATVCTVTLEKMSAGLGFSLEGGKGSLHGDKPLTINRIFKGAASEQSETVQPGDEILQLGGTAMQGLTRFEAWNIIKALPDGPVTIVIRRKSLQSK

[5] = molecular target: T5, TAX-IP2L PDZ-GST fusion protein (Homo sapiens (Human), UniProt Q8TF64 107-197)
T5 construct: Order of GST and PDZ part and limits not seen in the excerpts
T5 sequence: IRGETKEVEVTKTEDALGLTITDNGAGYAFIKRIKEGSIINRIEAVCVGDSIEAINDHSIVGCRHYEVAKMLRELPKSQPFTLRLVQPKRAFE

[6] = molecular target: T6, KIAA0807 (PDZ domain)-GST fusion protein (human, UniProt Q6P0Q8 1104-1192)
T6 construct: also called K807; KIAA807; not shown: glutathione S-transferase encoded by vector pGEX-3X (Pharmacia)
T6 sequence: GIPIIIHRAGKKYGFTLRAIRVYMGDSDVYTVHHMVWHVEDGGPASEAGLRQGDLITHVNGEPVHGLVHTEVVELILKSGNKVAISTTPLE

[7] = molecular target: T7, GEF PDZ-GST fusion protein (Homo sapiens (Human), UniProt Q8TEU7 293-400)
T7 construct: The label GEF is not explained in the excerpts
T7 sequence: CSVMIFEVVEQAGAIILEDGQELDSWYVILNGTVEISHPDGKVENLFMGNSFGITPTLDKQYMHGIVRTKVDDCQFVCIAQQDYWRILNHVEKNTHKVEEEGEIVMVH

[8] = molecular target: T8, MINT3 PDZ-GST fusion protein
T8 construct: Order of GST and PDZ part and limits not seen in the excerpts
T8 chain: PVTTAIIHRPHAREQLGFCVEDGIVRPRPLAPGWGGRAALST

[9] = molecular target: T9, NOS1 PDZ-GST fusion protein (Homo sapiens (Human), UniProt P29475 11-100)
T9 construct: Order of GST and PDZ part and limits not seen in the excerpts
T9 sequence (P29475 11-100 limits assumed): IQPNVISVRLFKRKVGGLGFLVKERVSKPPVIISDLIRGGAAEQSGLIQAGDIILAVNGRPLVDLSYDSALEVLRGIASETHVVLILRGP

[10] = molecular target: T10, ConEn PDZ-GST fusion protein (Homo sapiens (Human), UniProt Q969H4 193-287)
T10 construct: The label ConEn is not explained in the excerpts
T10 sequence: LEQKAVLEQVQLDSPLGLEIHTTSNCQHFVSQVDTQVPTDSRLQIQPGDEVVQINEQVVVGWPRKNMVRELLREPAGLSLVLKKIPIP

[11] = molecular target: T11, GST-TIAM1 PDZ domain fusion protein (Homo sapiens (Human), UniProt Q13009 845-931)
T11 construct: also called TLAM1; T-lymphoma invasion and metastasis inducing protein 1; not shown: glutathione S-transferase encoded by vector pGEX-3X (Pharmacia)
T11 sequence (Q13009 other isoform, or with tags, fused parts or gaps): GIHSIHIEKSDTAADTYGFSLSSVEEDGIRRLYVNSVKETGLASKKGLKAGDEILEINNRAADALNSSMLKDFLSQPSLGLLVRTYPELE

[12] = molecular target: T12, GST-CASK PDZ domain fusion protein (Homo sapiens, UniProt O14936 486-575)
T12 construct: also called Homo sapiens CASK protein
T12 sequence: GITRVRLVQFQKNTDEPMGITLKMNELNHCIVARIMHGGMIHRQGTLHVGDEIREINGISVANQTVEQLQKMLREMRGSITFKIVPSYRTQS

[13] = molecular target: T13, GST-cytohesin binding protein PDZ domain fusion protein (Homo sapiens (Human), UniProt O60759 74-165)
T13 construct: also called CBP; not shown: glutathione S-transferase encoded by vector pGEX-3X (Pharmacia)
T13 sequence: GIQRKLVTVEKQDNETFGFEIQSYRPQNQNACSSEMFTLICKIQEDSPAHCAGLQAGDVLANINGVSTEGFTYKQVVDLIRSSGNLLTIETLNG

[14] = molecular target: T14, GST-PTN-4 PDZ domain fusion protein (Homo sapiens (Human), UniProt P29074 517-605)
T14 construct: also called protein-tyrosine phosphatase meg1; not shown: glutathione S-transferase encoded by vector pGEX-3X (Pharmacia)
T14 sequence: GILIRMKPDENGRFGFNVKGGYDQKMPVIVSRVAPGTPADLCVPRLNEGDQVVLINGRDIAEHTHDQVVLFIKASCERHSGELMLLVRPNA

[15] = molecular target: T15, GST-DLG5 (p-dlg) PDZ domain fusion protein (Human, UniProt Q8TDM6 1343-1583)
T15 construct: also called Human discs large protein p-dlg; not shown: glutathione S-transferase encoded by vector pGEX-3X (Pharmacia)
T15 sequence: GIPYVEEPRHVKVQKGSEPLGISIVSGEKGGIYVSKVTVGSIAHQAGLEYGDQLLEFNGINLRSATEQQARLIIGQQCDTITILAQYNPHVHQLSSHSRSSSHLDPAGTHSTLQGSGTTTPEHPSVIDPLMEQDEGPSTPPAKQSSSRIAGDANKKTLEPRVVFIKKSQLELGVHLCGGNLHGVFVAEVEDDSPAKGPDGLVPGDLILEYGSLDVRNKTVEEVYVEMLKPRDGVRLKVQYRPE

Measured: binding result

B1: FceRIb C-terminal peptide AA25L, biotinylated (peptide)
peptide: Biotin-YSATYSELEDPGEMSPPIDL
notes: also called FceRlb; FcεRβI
no binding: [1] | [2] | [3] | [4] | [5] | [6] | [7] | [8] | [9] | [10] | [11] | [12] | [13] | [14] | [15]

B2: CD83 C-terminal peptide AA47L, biotinylated (peptide)
peptide: Biotin-VTSPNKHLGLVTPHKTELV
no binding: [1] | [2] | [3] | [4] | [5] | [6] | [7] | [8] | [9] | [10] | [11] | [12] | [13] | [14] | [15]

B3: CC CKR-4 C-terminal peptide AA44L (peptide)
peptide: Biotin-DTPSSSYTQSTMDHDLHDAL
notes: Only the last four residues are seen in the excerpts
no binding: [1] | [2] | [3] | [4] | [5] | [6] | [7] | [8] | [9] | [10] | [11] | [12] | [13] | [14] | [15]

B4: CD166 C-terminal peptide AA20L, biotinylated (peptide)
peptide: Biotin-DLGNMEENKKLEENNHKTEA
notes: also called CD166 (CD6L)
no binding: [1] | [2] | [3] | [4] | [5] | [6] | [7] | [8] | [9] | [10] | [11] | [12] | [13] | [14] | [15]

B5: CC CKR-1R C-terminal peptide AA41L (peptide)
peptide: Biotin-LERVSSTSPSTGEHELSAGF
notes: as for B3
no binding: [1] | [2] | [3] | [4] | [5] | [6] | [7] | [8] | [9] | [10] | [11] | [12] | [13] | [14] | [15]

B6: CC CKR-2 C-terminal peptide AA42L (peptide)
peptide: Biotin-GKGKSIGRAPEASLQDKEGA
notes: as for B3
no binding: [1] | [2] | [3] | [4] | [5] | [6] | [7] | [8] | [9] | [10] | [11] | [12] | [13] | [14] | [15]
